Reference: US20260055173A1

Experiments:
[1] = target: monkey PD-1 (ACRO, His tag) (monkey) (UniProt B0LAJ3); assay: ELISA, monkey PD-1 (His tag) coated, anti-human IgG Fc-HRP
[2] = target: biotin-labeled human VEGF (ACRO, biotinylated protein) (human) (UniProt P15692); assay: dual (bridging) ELISA: human PD-1 (His tag) coated, antibody, then biotinylated human VEGF, streptavidin-HRP
[3] = target: human VEGF (ACRO, His tag) (human) (UniProt P15692); assay: ELISA, human VEGF (His tag) coated, anti-human IgG Fc-HRP
human VEGF (ACRO, His tag) (human), sequence (P15692 other isoform, or with tags, fused parts or gaps limits assumed): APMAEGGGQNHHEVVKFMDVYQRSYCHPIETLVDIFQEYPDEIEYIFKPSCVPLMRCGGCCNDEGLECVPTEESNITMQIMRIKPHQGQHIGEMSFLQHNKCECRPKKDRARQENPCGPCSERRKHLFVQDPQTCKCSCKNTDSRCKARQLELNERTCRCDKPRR

monkey PD-1 (ACRO, His tag) (monkey), sequence (B0LAJ3 entry or part of it limits assumed, form in doubt): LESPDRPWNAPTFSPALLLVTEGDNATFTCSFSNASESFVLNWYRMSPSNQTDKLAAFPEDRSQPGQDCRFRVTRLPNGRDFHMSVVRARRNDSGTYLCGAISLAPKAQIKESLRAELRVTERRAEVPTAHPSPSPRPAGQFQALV
biotin-labeled human VEGF (ACRO, biotinylated protein) (human), sequence (P15692 other isoform, or with tags, fused parts or gaps limits assumed): as the sequence (P15692 other isoform, or with tags, fused parts or gaps limits assumed) above

Keytruda (antibody) gave an EC50 [1] of 0.187 nM and a TOP OD [1] of 3.08 OD450.
Opdivo (antibody) showed an EC50 [1] of 0.153 nM, a TOP OD [1] of 2.99 OD450 and a TOP OD [2] of 0.048 OD450. The TOP OD [3] was 0.048 OD450.
